# Laboratory results as given in paper PMC3514788 (The Journal of Cell Biology, 2012).
# B1: GST-Nup116 fragment from the N terminus to residue 172 (domain or fragment)
# chain: MFGVSRGAFPSATTQPFGSTGSTFGGQQQQQQPVANTSAFGLSQQTNTTQAPAFGNFGNQTSNSPFGMSGSTTANGTPFGQSQLTNNNASGSIFGGMGNNTALSAGSASVVPNSTAGTSIKPFTTFEEKDPTTGVINVFQSITCMPEYRNFSFEELRFQDYQAGRKFGTSQN
# B2: Drg1 (enzyme)
# chain: MAPKSSSSGSKKKSSASSNSADAKASKFKLPAEFITRPHPSKDHGKETCTAYIHPNVLSSLEINPGSFCTVGKIGENGILVIARAGDEEVHPVNVITLSTTIRSVGNLILGDRLELKKAQVQPPYATKVTVGSLQGYNILECMEEKVIQKLLDDSGVIMPGMIFQNLKTKAGDESIDVVITDASDDSLPDVSQLDLNMDDMYGGLDNLFYLSPPFIFRKGSTHITFSKETQANRKYNLPEPLSYAAVGGLDKEIESLKSAIEIPLHQPTLFSSFGVSPPRGILLHGPPGTGKTMLLRVVANTSNAHVLTINGPSIVSKYLGETEAALRDIFNEARKYQPSIIFIDEIDSIAPNRANDDSGEVESRVVATLLTLMDGMGAAGKVVVIAATNRPNSVDPALRRPGRFDQEVEIGIPDVDARFDILTKQFSRMSSDRHVLDSEAIKYIASKTHGYVGADLTALCRESVMKTIQRGLGTDANIDKFSLKVTLKDVESAMVDIRPSAMREIFLEMPKVYWSDIGGQEELKTKMKEMIQLPLEASETFARLGISAPKGVLLYGPPGCSKTLTAKALATESGINFLAVKGPEIFNKYVGESERAIREIFRKARSAAPSIIFFDEIDALSPDRDGSSTSAANHVLTSLLNEIDGVEELKGVVIVAATNRPDEIDAALLRPGRLDRHIYVGPPDVNARLEILKKCTKKFNTEESGVDLHELADRTEGYSGAEVVLLCQEAGLAAIMEDLDVAKVELRHFEKAFKGIARGITPEMLSYYEEFALRSGSSS
# Assays:
# [1] = target: GST-Rlp24C (S. cerevisiae) (UniProt Q07915); test: SPR
# [2] = target: B2; test: pull-down
# [3] = target: the molecule itself
# Sequence of GST-Rlp24C (S. cerevisiae) (Q07915 147-199): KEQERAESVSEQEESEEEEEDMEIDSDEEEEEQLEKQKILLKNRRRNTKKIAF
molecule,measurement,setting,value
Drg1EQ1 (from UniProt P32794 1-780) (enzyme),fold RU against the wild-type and EQ2 proteins,[1],4 fold
same,kon2 (two-state reaction),[1],0.011 s⁻¹
B1,binding result,[2],binds
B2,stoichiometry N,[3],6
